Data from the nanobody polyreactivity screen of Harvey et al. (2022).

Assay: yeast display, Sf9 membrane polyspecificity reagent, FACS + sequencing; frameworks hold sequencing errors
How it was run: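 Genes from sorted yeast were amplified by colony PCR, read by MiSeq 2 × 250 sequencing and filtered on CDR length. These cells carried a synthetic nanobody library in Saccharomyces cerevisiae BJ5465 and were sorted by FACS into low and high (top ~1%) gates on anti-HA and streptavidin fluorescence. Polyreactivity is labelled according to the gate of origin.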

| Sequence | polyreactivity (PSR sort gate) |
| --- | --- |
| QVQLVESGGVLVQAGGRLGLSCAASGSTLRAYAMGWYRQATGKVRELVATISSGGRTYYADSVKGRFTISRDNAKNTVYLQMNSLKPEDTAVYYSAKREHGFFYYTYDYWGQGTQVTVSS | low polyreactivity |
| QVQLVESGGRLVQAGGSLRLSCAASGFTFDVYAMGWYRQAPGKERELVASITLRDGSTYYADSVKGRFTISRDNAKNTVYLQMNSLKPEDTAVYYCAADDSRATYEFEYWGQGTQVTVSS | low polyreactivity |
| QLQIVESGGGLVQAGGSLRLSCAASGRIFSYNAMGWYIQAPGKARELVAAITFSGGGTYYADSVKGRFTISRDNAKNTVYLQMNSLNPEYTAVYYCNKVSYGYSTYGYWGQCTQVTVSS | low polyreactivity |
| QVQLVESGGGLVQAGGSLRLSCAASGITFYYYAMGWYRPAPGKERELVADITGTGSRTYYADSVKGRFTISRDNAKNTVYLQMNSLKPEDTAVYYCAATKRFPWFVYGEGDSWGQGTQVTVSS | high polyreactivity |
| QVQLVESGGGLVQAGCSLRLSCAASGRTFVWYEMGWYRQATGKERELVAAINKRGTSTYYADSVKGRFTISRDNAKNTVYLQMNSLNPEVTAVYYCAVEYIYWFHSRSSYIYDYWGQGTQVTVSS | low polyreactivity |
| QVQLVESGGGLVQAGGSLRLSCAASGFTFYHYAMGWYRPAPGKERELVAAITWSGGDTYYADSEKGRFTSSRDNAKNTVYLQMNSLKPEDTAVYYCNADDPPGAPYYDSFDYRGDYWGQGTQRTVSS | low polyreactivity |
| QVQLVESGGGIVQAGGSLRLSCAASGLNFGLYAMGWDRQAPGNERELVAAITWSGVSTSYADSVKGRFTISRDNAKNTVYLQMNSLKPEDTAVYYCNKDPGTLYGDMDSWGQGTQVTVSS | low polyreactivity |
| QVQLLESGGGLVQAGGSLRLSCAATGRIFFYGMGWYRQAPGNETELVATITSVSNTYYADSVKGRFTISRDNAKNTGYLLMNSLKPEDTAVYYCAARPDRYRYRYGYWGQGTQVTVSS | high polyreactivity |
| QVQLVESGGGLVQAGGSLRLSCAASGSTFNFYAMGWYRQAPGKEREFVAAITSSGDSTYYADSVKGRFTISRDHAKTTVYLQMNSLKPEDTAVYYCAARLRWRYSYDYWGQGTQVTVSS | high polyreactivity |
| QVQLVESGGGLVQAGGSLRLSCAASGYIFDKNAMGWYRQAPGKERELVAAITSSGGRTYYADSVKGRFTISRDNAKNTVYLQMNSLKPEDTAVYYCNKLYRTSGEYVYWGQGTQVTVSS | high polyreactivity |
| QVQLVESGGGLVQAGGSLRLSCAASGSTFVNNAMGWYIQAPGKERELVAAIRSSDGRTYYADSVKGRFTISRDNAKNTVYLQMNSLKPEDTAVYYCATAVGTKYRTRIFEYYYWGQGTQVTVSS | high polyreactivity |
| QVQLVESGGGLVQAGGSLRLSCAASGRTFYKNAMGWYRQATGKERELVARISRGGSTNYADSVKGRFTISRDNAKNTVYLQMNSLKPEDTAVYYCAKEYGTHGKTYDYWGQGTQVTVSS | high polyreactivity |
| QVQLVESGGGLVQAGGSLRLSCAASGRTFNWYTMGWYRQAPGKERELVARINGRGGSTYYADSVKGRFTISRDNAKNTVYLQMNSLKPEDTAVYYCAADLHKLARYDYWGQGTQVTVSS | high polyreactivity |
| QVQLVESAGGLVQAGGSLRLSCAASGSIFGPYAMGWYRQAPGKERELVAVISSGDSTNYADSVKGRFTISRDNAKNTVYLQMNSLKPEDTAVYYCATRYLLYRGGHTLFYHFDYWGLGTQVTVSS | low polyreactivity |
| QVQLVESGGGLVQAGGSLRLSCAASGFTFDFYAMGWNRQAPGKERELVAVISSSGRTYYADSVKGRFTISRDNAKNSVYLQMNSMKPEDTAVYYCDAKDKRGHTYDYWGQGTQVTVSS | high polyreactivity |
| QVQLVESGGGLVKAGGSLRLICAASGFTFRAYAMGWYRQAPGTERELVAAINRRGGRTYYADSVKGRFTISRDNAKNTVYLQMNSLKPEDTAVYYCAAVKSGPSKGVGPPATAYDYWGQGTQVTVSS | high polyreactivity |

| Sequence | polyreactivity (PSR sort gate) |
| --- | --- |
| QVQLVESGGGLVQAGGSLRLSCAASGRIFDTNAMGWYRQAPGKERAFVAAISRSGGSTYYADSVKGRFTISRDNAKNTVYLQMNSLKPEDTAVYYCAARWYVLQPLGYDATHRKYYWGQGTQVTVSS | high polyreactivity |
| QVQLVESGGGLVQAGGSLRLSCAASGIIIDYNAMGWYRQAPGKERELVAAISSRGGSTYYADSVKGRFTISRDNAKNPVYFQMNSLKPEDTAVYYCAGRPDHQRYDYWGQGSQVTVSS | low polyreactivity |
| QVQLVESGGGLVQAGGRLRLSCAASGFTFTRYTMGWYRQAPGKERELVARITRSGASTYYADSVKGRFTISRDNAKNTVYLQMNSLKPEDTAVYYCAADTWSYTTRYYYWGQGTQVTVSS | high polyreactivity |
| QVQLVESGGGLVQAGGSLRLSCAASGSIFGWYAMGWYRQAPGKERELVAAIDSATSTYYADSVKGRFTISRDNAKNTVYLQMNSLKPEDTAFYYCAAVQLYQKHQITYVAHEYWGQGTQVTVSS | low polyreactivity |
| QVQLVESGGGLVQAGGSLRLSCAASGFILPNYAMGWYRQATGKERELVDAITYIGGSTYYADSVKGRFTISRDNAKNTVYLHMNSLKPEDTAVYYCAKYWLGYTKFDYWGQGTQVTVSS | low polyreactivity |
| QVQLEESGGGLVQAGGSIRLSCAASGRTIVYNAMGWYRQAPGNERELVDAIDGGGDRTYYADSVKGRFTISRDNAKITVYLQMNRLKPEDTAVYYCARDPGDTYYYSYPEGDYWGQGTQVSVSS | low polyreactivity |
| QVQLVESGGGLVQAGGSLRLSCAASGRIFGDNAMGWYRQAPGKEREFVAAISWSGGTTYYADSVKGRFTISRDNAKNTVYLQMNSLKPEDTAVYYCAADYTRGYDYWGQGTQVTVSS | low polyreactivity |
| QVQLVESGGGIVQAGGSLRLSCAASGSTFYSYAMGFYRQAPGKERELVAAISWDGGRTYYADSVKGRFTISRDNAKNTVYLQMNSLKPEDTAVYYCAAAYPTYRHYYWGQGTQVTVSS | low polyreactivity |
| QVQLAESGGGLVQAGGSLRLSCAPSGSTFEINAMGWYRQAPGKETELVAAISRGGSTNYADSVKGRFSISRDNAKNTVYLQMNSLKPEDSAVYDCARDPRFRYYRVSYANDQEFEYSGQGTQVTVSS | high polyreactivity |
| QVQLVESGGGLVQAGGSLRLSCAATGITFYPNDMGWYRQAPGKERELVAAITTNDGDTYYADSVKGRFTISRDNAKNTVYLQMNSLKPEDTAVYYCAADSGSTSEYEYWGQGTQVTVSS | low polyreactivity |
| QVQLVESGGGLVQAGGSLRLSCAASGIIFAANAMAWYRQAPGKERELVAAISKNGGITYYADSVKGRFTISRDNAKNTVYLQMNSLIPEDTAVYDCSARWRQTRRYYYWGQGTKVTVSS | high polyreactivity |
| QVQLVESGGGLVQAGGSLRLSSAASGRIFGHYAMGWYRQAPGKERELVAAISRSGTRTYYADSVKGRFTISRDNAKNTVYLQMNSLKPEDTAVYYCAAYTYKGIYYYWGQGTQVTVSS | high polyreactivity |
| QVQLVESGGGLVQAGGSLRLSCAASGITFIYYMGWYRQAPGKERELVAAITWSGGSTYYADSVKGRFTISRDNAKNTVLLQMNSLKPVDNAVYYCAAVRRAEEYDYWGQGTQVTVSS | low polyreactivity |
| QVQLLESVGGLVQAGGSLRLSCDASGYTYCGYAMGSYRQAPGKERELVAAISRSGGSTYYADTVKGRFTISRDHAKNTVYLQMNSLKPEDTAVYYCNARTEDYDGANNYWGHGTQVTVSS | low polyreactivity |
| QVQLVESGGGLVQAGGRLRLSCAASGGTFHKYAMGWYRQAPGKERELVAGISRRTGTTYYADSVKGRFTISRDNAKNTVYLQMNSLKPEDTAVYYCATDWGRYSRLSKADPSDYWGQGTHVTVSS | high polyreactivity |
